Measurements published in publication PMC5955915 (2018).

Molecular target: BG505 SOSIP.664
Assay: BLI

B1: PGT122 Fab (Fab, V domains shown)
VH: QVHLQESGPGLVKPSETLSLTCNVSGTLVRDNYWSWIRQPLGKQPEWIGYVHDSGDTNYNPSLKSRVHLSLDKSKNLVSLRLTGVTAADSAIYYCATTKHGRRIYGVVAFKEWFTYFYMDVWGKGTSVTVSS
VL: APTFVSVAPGQTARITCGEESLGSRSVIWYQQRPGQAPSLIIYNNNDRPSGIPDRFSGSPGSTFGTTATLTITSVEAGDEADYYCHIWDSRRPTNWVFGEGTTLIVL
Kd: 34.8 nM | koff: 0.00085 s⁻¹
